Biological target: T1, DYRK1A (recombinant, N-terminally biotinylated) (UniProt Q13627 1-763, biotin on the N-terminus (sortase labelling with a synthetic biotin-LPETGG peptide onto the N-terminal glycine left after TEV cleavage))
T1 construct: DYRK1A; also called Dual-specificity Tyrosine Phosphorylation-regulated Kinase 1 A; biotinylated DYRK1A; not shown: GST, N-terminal, cleaved; biotin-LPETGG peptide (sortase-ligated), N-terminal, kept
Assay: BLI; Octet-RED96e; 200 nM biotinylated DYRK1A loaded on streptavidin biosensor tips, dipped into FAM53C analyte at varied concentrations; 25 mM Tris pH 8.0, 150 mM NaCl, 1 mM DTT, 2 mg/mL BSA, 0.2% Tween; double reference-subtracted; rates from a 1:1 model, KD from steady-state analysis
Settings: both partners purified

Kd: 3.3 ± 0.5 mM
B1: FAM53C (recombinant) (natural protein, UniProt Q9NYF3 1-392, looked up)
chain: MITLITEQLQKQTLDELKCTRFSISLPLPDHADISNCGNSFQLVSEGASWRGLPHCSCAEFQDSLNFSYHPSGLSLHLRPPSRGNSPKEQPFSQVLRPEPPDPEKLPVPPAPPSKRHCRSLSVPVDLSRWQPVWRPAPSKLWTPIKHRGSGGGGGPQVPHQSPPKRVSSLRFLQAPSASSQCAPAHRPYSPPFFSLALAQDSSRPCAASPQSGSWESDAESLSPCPPQRRFSLSPSLGPQASRFLPSARSSPASSPELPWRPRGLRNLPRSRSQPCDLDARKTGVKRRHEEDPRRLRPSLDFDKMNQKPYSGGLCLQETAREGSSISPPWFMACSPPPLSASCSPTGGSSQVLSESEEEEEGAVRWGRQALSKRTLCQRDFGDLDLNLIEEN
notes: FAM53C; also called C5ORF6; source: E. coli BL21 (DE3), purified (Ni-NTA, TEV cleavage, Q Sepharose, Superdex 75)

From publication PMC13132546, “The FAM53C/DYRK1A axis regulates the G1/S transition of the cell cycle” (eLife, 2026)
